Laboratory results taken from patent publication US20230265175A1 (Merck Sharp & Dohme, published 2023).

Columns and labels:
[1] = target: recombinant phosphorylated tau protein monomer (35 AWM); assay: competitive ELISA, 35 AWM (1 ng); free tau-pS413 detected with biotinylated Ta1505-mIgG2a (competitor)
[2] = target: T1, tau species in African Green Monkey (AGM) CSF (African Green Monkey); assay: competitive ELISA, fresh AGM CSF (75 µl of neat CSF); competitor biotinylated Ta1505-mIgG2a
T1 construct: also called Fresh African Green Monkey (AGM) CSF
Protocol: Binding affinities of various anti-tau-pS413 antibodies described herein for endogenous tau species were determined in brain homogenates and CSF samples from AD patients and preclinical models. Briefly, samples were pre-incubated with different concentrations of various anti-tau-pS413 antibodies, or respective isotype controls. Following a one-hour pre-incubation period, the antigen-antibody (Ag-Ab) mixture was added to plates pre-coated with a total tau capture antibody (Innotest ELISA kit).
Tissue homogenates were prepared using 1% sarkosyl buffer with several high-speed centrifugation steps to enrich for insoluble proteins including tau.

Row | Binder | EC50 [1] [nM] | EC50 [2] [nM]
1 | HmzTa1505-hIgG4-S228P (antibody) heavy: not shown light: DIVMTQSPLSLPVTLGEPASISCRSSQNIVHSNANTYLEWYLQKPGQSPQLLIYTVSNRFSGVPDRFSGSGSGTDFTLKISRVEAEDLGVYYCFQGSHLPLTFGGGTKVEIKRTVAAPSVFIFPPSDEQLKSGTASVVCLLNNFYPREAKVQWKVDNALQSGNSQESVTEQDSKDSTYSLSSTLTLSKADYEKHKVYACEVTHQGLSSPVTKSFNRGEC | 6.73 | 2.08
2 | V8-AFM-hIgG1-LALA-YTE (antibody, also called V8-AFM-IgG1-LALA-YTE) heavy: EVQLVESGGGLVQPGGSLRLSCAASGFTFSSFALNWVRQAPGKGLEWVGHIRSETNNYVTFYAASVKGRFTVSRDDSQNTAYLQMNSLKTEDTATYYCVRRGPRDSWFGYWGQGTLVTVSSASTKGPSVFPLAPSSKSTSGGTAALGCLVKDYFPEPVTVSWNSGALTSGVHTFPAVLQSSGLYSLSSVVTVPSSSLGTQTYICNVNHKPSNTKVDKKVEPKSCDKTHTCPPCPAPEAAGGPSVFLFPPKPKDTLYITREPEVTCVVVDVSHEDPEVKFNWYVDGVEVHNAKTKPREEQYNSTYRVVSVLTVLHQDWLNGKEYKCKVSNKALPAPIEKTISKAKGQPREPQVYTLPPSRDELTKNQVSLTCLVKGFYPSDIAVEWESNGQPENNYKTTPPVLDSDGSFFLYSKLTVDKSRWQQGNVFSCSVMHEALHNHYTQKSLSLSPGK light: DIVMTQSPLSLPVTLGEPASISCRSSQKIVHRNANTYLEWYLQKPGQSPQLLIYTVSNRFSGVPDRFSGSGSGTDFTLKISRVEAEDLGVYYCFQGSYLPLTFGGGTKVEIKRTVAAPSVFIFPPSDEQLKSGTASVVCLLNNFYPREAKVQWKVDNALQSGNSQESVTEQDSKDSTYSLSSTLTLSKADYEKHKVYACEVTHQGLSSPVTKSFNRGEC | 0.055 | 0.008
